Experimental data: patent US20240181094A1, “[161Tb]-BASED RADIOPEPTIDES” (priority 2021, published 2024)

Columns and labels:
AR42J tumor-bearing mice = experiment: Biodistribution studies: assessment of the optimum injected molar amount; conditions: 2 h p.i.; for kidney uptake: irrespective of the injected amount of peptide
[1] = mouse, in vivo
Description: Early side effects were assessed based on the RBW of each mouse which was monitored every second day. When an endpoint was reached or at the end of the study (after 49 days), relevant organs and tissues were collected, weighed and put into relation to the brain mass and body weight of the respective mouse. This allowed comparison of organ-to-brain and organ-to-body mass weight ratios. In addition, blood plasma parameters from blood collected immediately after euthanasia were measured.
RBW, organ mass and mass ratios at the endpoint. The RBW was monitored every second day. Mice were euthanized when a predefined endpoint criterion was reached or when the study was terminated at Day 49. RBWs, organ masses, organ mass ratios (kidney-to-brain, liver-to-brain and spleen-to-brain) and organ mass to body weight ratios (kidney-to-body mass, liver-to-body mass and spleen-to-body mass) were analyzed for significance using a one-way ANOVA test with a Tukey's multiple comparisons post-test. A p-value of <0.05 was considered as statistically significant.
Blood plasma chemistry: Immediately before euthanasia of the mice that reached the endpoint, blood was sampled from the retrobulbar vein. The values of creatinine (CRE), blood urea nitrogen (BUN), alkaline phosphatase (ALP), total bilirubin (TBIL) and albumin (ALB) were determined in the plasma after centrifugation of the blood using a dry chemistry analyzer (DRI-CHEM 4000 i, FUJIFILM, Japan). The average blood plasma parameters of each group were analyzed for significance using a one-way ANOVA test with a Tukey's multiple comparisons post-test. A p-value of <0.05 was considered as statistically significant.

[2] = test system: AR42 J tumor-bearing mice; experiment: Preclinical therapy study in AR42 J tumor-bearing mice; format: in vivo; conditions: 2 x 10 MBq; for tumor doubling time: 0.2 nmol, regrowth phase, fitted exponential curve

C[C@@H](O)[C@@H]1NC(=O)[C@H](CCCCN)NC(=O)[C@@H](Cc2c[nH]c3ccccc23)NC(=O)[C@H](Cc2ccc(O)cc2)NC(=O)[C@@H](NC(=O)[C@@H](Cc2ccccc2)NC(=O)CN2CCN(CC(=O)O)CCN(CC(=O)O)CCN(CC(=O)O)CC2)CSSC[C@@H](C(=O)N[C@H](CO)[C@@H](C)O)NC1=O [[^161Tb]Tb-DOTATOC] [metal not drawn]
AR42J Tumor uptake (AR42J tumor-bearing mice; 0.040 nmol/mouse): 16 ± 4 % IA/g | Adrenals uptake (AR42J tumor-bearing mice; 0.040 nmol/mouse): 0.65 ± 0.08 % IA/g | Intestines uptake (AR42J tumor-bearing mice; 0.040 nmol/mouse): 0.52 ± 0.15 % IA/g | Kidneys uptake (AR42J tumor-bearing mice; 0.040 nmol/mouse): 9.0 ± 2.0 % IA/g | Liver uptake (AR42J tumor-bearing mice; 0.040 nmol/mouse): 0.22 ± 0.02 % IA/g | Pancreas uptake (AR42J tumor-bearing mice; 0.040 nmol/mouse): 2.1 ± 0.5 % IA/g | Spleen uptake (AR42J tumor-bearing mice; 0.040 nmol/mouse): 0.50 ± 0.11 % IA/g | Stomach uptake (AR42J tumor-bearing mice; 0.040 nmol/mouse): 2.9 ± 1.1 % IA/g | AR42J Tumor uptake (AR42J tumor-bearing mice; 0.20 nmol/mouse): 14 ± 1 % IA/g | Adrenals uptake (AR42J tumor-bearing mice; 0.20 nmol/mouse): 0.43 ± 0.11 % IA/g | Blood uptake (AR42J tumor-bearing mice; 0.20 nmol/mouse): ≤0.10 % IA/g | Femur uptake (AR42J tumor-bearing mice; 0.20 nmol/mouse): 0.12 ± 0.03 % IA/g | Intestines uptake (AR42J tumor-bearing mice; 0.20 nmol/mouse): 0.24 ± 0.01 % IA/g | Kidneys uptake (AR42J tumor-bearing mice; 0.20 nmol/mouse): 9.4 ± 0.4 % IA/g | Liver uptake (AR42J tumor-bearing mice; 0.20 nmol/mouse): 0.19 ± 0.03 % IA/g | Lung uptake (AR42J tumor-bearing mice; 0.20 nmol/mouse): 0.47 ± 0.05 % IA/g | Pancreas uptake (AR42J tumor-bearing mice; 0.20 nmol/mouse): 1.5 ± 0.2 % IA/g | Spleen uptake (AR42J tumor-bearing mice; 0.20 nmol/mouse): 0.18 ± 0.02 % IA/g | AR42J Tumor uptake (AR42J tumor-bearing mice; 1.0 nmol/mouse): 8.2 ± 0.2 % IA/g | Adrenals uptake (AR42J tumor-bearing mice; 1.0 nmol/mouse): 0.25 ± 0.06 % IA/g | Blood uptake (AR42J tumor-bearing mice; 1.0 nmol/mouse): ≤0.10 % IA/g | Femur uptake (AR42J tumor-bearing mice; 1.0 nmol/mouse): ≤0.10 % IA/g | Heart uptake (AR42J tumor-bearing mice; 1.0 nmol/mouse): ≤0.10 % IA/g | Intestines uptake (AR42J tumor-bearing mice; 1.0 nmol/mouse): 0.21 ± 0.13 % IA/g | Kidneys uptake (AR42J tumor-bearing mice; 1.0 nmol/mouse): 9.9 ± 1.3 % IA/g | Liver uptake (AR42J tumor-bearing mice; 1.0 nmol/mouse): 0.17 ± 0.01 % IA/g | Lung uptake (AR42J tumor-bearing mice; 1.0 nmol/mouse): 0.27 ± 0.03 % IA/g | Muscle uptake (AR42J tumor-bearing mice; 1.0 nmol/mouse): ≤0.10 % IA/g | Pancreas uptake (AR42J tumor-bearing mice; 1.0 nmol/mouse): 0.71 ± 0.07 % IA/g | Spleen uptake (AR42J tumor-bearing mice; 1.0 nmol/mouse): 0.11 ± 0.02 % IA/g | Stomach uptake (AR42J tumor-bearing mice; 1.0 nmol/mouse): 0.74 ± 0.38 % IA/g | kidney uptake (AR42J tumor-bearing mice): ~10 % IA/g | ALB (albumin), plasma [1]: 23 ± 2 g/L | ALP (alkaline phosphatase), plasma [1]: 76 ± 21 U/L | BUN (blood urea nitrogen), plasma [1]: 5.8 ± 1.0 mmol/L | CRE (creatinine), plasma [1]: <18 µmol/L | Organ mass Brain [1]: 440 ± 23 mg | Organ mass Kidneys [1]: 352 ± 27 mg | Organ mass Liver [1]: 1195 ± 57 mg | Organ mass Spleen [1]: 86 ± 19 mg | Median survival ([2]; 0.2 nmol (Day 0, Day 7)): 21 days | tumor growth delay ([2]; 0.2 nmol (Day 0, Day 7)): 9.0 ± 5.5 days | tumor doubling time [2]: 3.4 ± 3.6 days

C[C@@H](O)[C@@H]1NC(=O)[C@H](CCCCN)NC(=O)[C@@H](Cc2c[nH]c3ccccc23)NC(=O)[C@H](Cc2ccc(O)cc2)NC(=O)[C@@H](NC(=O)[C@@H](Cc2ccccc2)NC(=O)CN2CCN(CC(=O)O)CCN(CC(=O)O)CCN(CC(=O)O)CC2)CSSC[C@@H](C(=O)N[C@H](CO)[C@@H](C)O)NC1=O [[^177Lu]Lu-DOTATOC] [metal not drawn]
AR42J Tumor uptake (AR42J tumor-bearing mice; 0.040 nmol/mouse): 18 ± 3 % IA/g | Adrenals uptake (AR42J tumor-bearing mice; 0.040 nmol/mouse): 0.65 ± 0.10 % IA/g | Blood uptake (AR42J tumor-bearing mice; 0.040 nmol/mouse): ≤0.10 % IA/g | Femur uptake (AR42J tumor-bearing mice; 0.040 nmol/mouse): 0.17 ± 0.05 % IA/g | Heart uptake (AR42J tumor-bearing mice; 0.040 nmol/mouse): ≤0.10 % IA/g | Intestines uptake (AR42J tumor-bearing mice; 0.040 nmol/mouse): 0.33 ± 0.05 % IA/g | Kidneys uptake (AR42J tumor-bearing mice; 0.040 nmol/mouse): 10 ± 2 % IA/g | Liver uptake (AR42J tumor-bearing mice; 0.040 nmol/mouse): 0.18 ± 0.02 % IA/g | Lung uptake (AR42J tumor-bearing mice; 0.040 nmol/mouse): 1.1 ± 0.2 % IA/g | Muscle uptake (AR42J tumor-bearing mice; 0.040 nmol/mouse): ≤0.10 % IA/g | Pancreas uptake (AR42J tumor-bearing mice; 0.040 nmol/mouse): 1.9 ± 0.2 % IA/g | Spleen uptake (AR42J tumor-bearing mice; 0.040 nmol/mouse): 0.39 ± 0.11 % IA/g | Stomach uptake (AR42J tumor-bearing mice; 0.040 nmol/mouse): 1.7 ± 0.3 % IA/g | AR42J Tumor uptake (AR42J tumor-bearing mice; 0.20 nmol/mouse): 17 ± 4 % IA/g | Adrenals uptake (AR42J tumor-bearing mice; 0.20 nmol/mouse): 0.51 ± 0.35 % IA/g | Femur uptake (AR42J tumor-bearing mice; 0.20 nmol/mouse): 0.10 ± 0.01 % IA/g | Heart uptake (AR42J tumor-bearing mice; 0.20 nmol/mouse): ≤0.10 % IA/g | Intestines uptake (AR42J tumor-bearing mice; 0.20 nmol/mouse): 0.40 ± 0.25 % IA/g | Kidneys uptake (AR42J tumor-bearing mice; 0.20 nmol/mouse): 10 ± 3 % IA/g | Liver uptake (AR42J tumor-bearing mice; 0.20 nmol/mouse): 0.15 ± 0.03 % IA/g | Lung uptake (AR42J tumor-bearing mice; 0.20 nmol/mouse): 0.63 ± 0.03 % IA/g | Muscle uptake (AR42J tumor-bearing mice; 0.20 nmol/mouse): ≤0.10 % IA/g | Pancreas uptake (AR42J tumor-bearing mice; 0.20 nmol/mouse): 1.7 ± 0.5 % IA/g | Spleen uptake (AR42J tumor-bearing mice; 0.20 nmol/mouse): 0.15 ± 0.02 % IA/g | Stomach uptake (AR42J tumor-bearing mice; 0.20 nmol/mouse): 1.1 ± 0.2 % IA/g | AR42J Tumor uptake (AR42J tumor-bearing mice; 1.0 nmol/mouse): 8.9 ± 1.5 % IA/g | Adrenals uptake (AR42J tumor-bearing mice; 1.0 nmol/mouse): 0.28 ± 0.08 % IA/g | Blood uptake (AR42J tumor-bearing mice; 1.0 nmol/mouse): ≤0.10 % IA/g | Femur uptake (AR42J tumor-bearing mice; 1.0 nmol/mouse): ≤0.10 % IA/g | Heart uptake (AR42J tumor-bearing mice; 1.0 nmol/mouse): ≤0.10 % IA/g | Intestines uptake (AR42J tumor-bearing mice; 1.0 nmol/mouse): 0.20 ± 0.05 % IA/g | Kidneys uptake (AR42J tumor-bearing mice; 1.0 nmol/mouse): 11 ± 1 % IA/g | Liver uptake (AR42J tumor-bearing mice; 1.0 nmol/mouse): 0.26 ± 0.07 % IA/g | Lung uptake (AR42J tumor-bearing mice; 1.0 nmol/mouse): 0.37 ± 0.06 % IA/g | Muscle uptake (AR42J tumor-bearing mice; 1.0 nmol/mouse): ≤0.10 % IA/g | Pancreas uptake (AR42J tumor-bearing mice; 1.0 nmol/mouse): 0.80 ± 0.13 % IA/g | Spleen uptake (AR42J tumor-bearing mice; 1.0 nmol/mouse): 0.15 ± 0.03 % IA/g | Stomach uptake (AR42J tumor-bearing mice; 1.0 nmol/mouse): 0.65 ± 0.11 % IA/g | kidney uptake (AR42J tumor-bearing mice): ~10 % IA/g | ALB (albumin), plasma [1]: 24 ± 5 g/L | ALP (alkaline phosphatase), plasma [1]: 77 ± 8 U/L | BUN (blood urea nitrogen), plasma [1]: 6.3 ± 0.9 mmol/L | CRE (creatinine), plasma [1]: <18 µmol/L | Organ mass Brain [1]: 453 ± 31 mg | Organ mass Kidneys [1]: 342 ± 23 mg | Organ mass Liver [1]: 1121 ± 123 mg | Organ mass Spleen [1]: 90 ± 17 mg | tumor growth delay ([2]; 0.2 nmol (Day 0, Day 7)): 6.0 ± 4.4 days | tumor doubling time [2]: 3.4 ± 0.8 days
